Measured values published in patent USRE49495E1, “Binding polypeptides having a mutated scaffold” (Affibody AB, priority 2013, dated 2023).

Columns and labels:
[1] = target: T1, human C5 (Quidel, cat. no. A403) (human, UniProt P01031 19-673; P01031 678-1676, limits assumed); test: BLI (ForteBio), compound captured on HSA sensor, human C5 0.79-25 nM, 1:1 model
T1 construct: Bought protein; also called hC5; human complement component 5

[2] = target: T2, human PDGF-Rβ (R&D Systems, cat. no. 385-PR-100/CF) (human, UniProt P09619 33-530, limits assumed); test: SPR Biacore 2000, PDGF-Rβ on CM5 chip, 1:1 binding with mass transfer; sample (0) before stability test; reference Z15805 (0)
T2 construct: Bought; also called platelet-derived growth factor receptor beta

[3] = target: T2, human PDGF-Rβ (R&D Systems, cat. no. …); test: SPR Biacore 2000, PDGF-Rβ on CM5 chip, 1:1 binding with mass transfer; sample (2w) after 2 weeks at 37 C; reference Z15805 (2w)
[4] = target: T2, human PDGF-Rβ (R&D Systems, cat. no. …); test: SPR Biacore 2000, PDGF-Rβ on CM5 chip, 1:1 binding with mass transfer; KD after 2 weeks at 37 C against KD before
[5] = target: T2, human PDGF-Rβ (R&D Systems, cat. no. …); test: SPR Biacore 2000, PDGF-Rβ on CM5 chip, 1:1 binding with mass transfer; sample (0) before stability test
[6] = target: T2, human PDGF-Rβ (R&D Systems, cat. no. …); test: SPR Biacore 2000, PDGF-Rβ on CM5 chip, 1:1 binding with mass transfer; sample (2w) after 2 weeks at 37 C

T2 sequence (P09619 33-530 limits assumed): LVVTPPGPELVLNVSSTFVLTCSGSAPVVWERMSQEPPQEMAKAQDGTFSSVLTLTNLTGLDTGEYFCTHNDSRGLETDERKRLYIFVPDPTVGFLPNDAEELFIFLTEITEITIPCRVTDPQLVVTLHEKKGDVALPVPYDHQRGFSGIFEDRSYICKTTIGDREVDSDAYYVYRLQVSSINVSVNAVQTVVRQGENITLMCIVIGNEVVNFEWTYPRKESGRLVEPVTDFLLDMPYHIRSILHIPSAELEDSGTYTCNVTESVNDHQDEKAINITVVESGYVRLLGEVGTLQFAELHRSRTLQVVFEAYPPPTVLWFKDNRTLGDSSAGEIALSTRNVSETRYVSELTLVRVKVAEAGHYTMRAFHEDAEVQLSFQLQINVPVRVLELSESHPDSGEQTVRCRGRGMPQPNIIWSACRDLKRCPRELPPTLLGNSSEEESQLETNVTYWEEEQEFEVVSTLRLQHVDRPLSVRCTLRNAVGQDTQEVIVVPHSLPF

Binder | Rel. KD [1] | KDInv/KDOrig [2] [ratio] | KDInv/KDOrig [3] [ratio] | KD(2w)/KD(0) [4] [ratio] | Kd [5] [nM] | koff [5] [s⁻¹] | kon [5] [M⁻¹ s⁻¹] | Kd [6] [nM] | koff [6] [s⁻¹] | kon [6] [M⁻¹ s⁻¹]
PSI0383 (designed binder, positions 52-53 changed from ND to SE against PSI0242) AEAKYAKEVLEAWDEIDRLPNLTIEQWLAFINKLDRQPEQSSELLSEAKKLSESQAPKVEGSLAEAKEAANAELDSYGVSDFYKRLIDKAKTVEGVEALKDAILAALP | 2.1 ratio to PSI0242 | – | – | – | – | – | – | – | – | –
Z17344 (designed binder) MGSSHHHHHHLQAEAKYAKELIEAAAEIDALPNLTRRQWNAFIKKLVRQPEQSSELLSEAKKLSESQAPK | – | 6.19 | 3.88 | 0.93 | 1.2 | 0.0616 | 5.15e+07 | 1.1 | 0.0623 | 5.62e+07
